The results in this text go back to US12258605B2, “Alkane oxidation by modified hydroxylases” (The California Institute of Technology, priority 2005, dated 2025).

What all share (format): biochemical
The nature of assay [1]: Background NADPH oxidation rate in screen (cell lysate, no substrate). The note with it: relative to 35-E11. On the procedure:
(§1) Libraries of mutants of 35-E11 were screened for phenotypes indicative of either increased product formation on small gaseous substrates slightly larger than methane. Additionally, they were screened for increased coupling of the consumption of NADPH reducing equivalents to product formation. Product formation was determined by measuring total amount of dimethyl ether hydroxylation while increased coupling was determined primarily by decreased background NADPH consumption rates (measured spectrophotometrically at 340 nm in the absence of substrate).
The relative dimethyl ether (DME) activity was measured, 1 hour after treatment with Purpald, as the average net and absorbance at 550 nm from 8 microtitre plate DME reactions of the mutant compared to 8 equivalent reactions of 35-E11. All values were normalized by measuring the P450 concentration in each well with CO binding. “Asteriks” indicate criteria used to select mutants from libraries for further characterization. The oxidation rate is measured as absorbance change at 340 nm over 1 minute upon the addition of NADPH to 8 microtitre plate wells containing P450-containing cell lysate and compared to 8 equivalent reactions of 35-E11. All values were normalized by measuring the P450 concentration in each well with CO binding. The total turnover number (TTN) was measured as the absorbance at 550 nm of methane reactions with each mutant after treatment with alcohol oxidase and […]

A short description of assay [2]: High-throughput dimethyl ether (DME) screen. The following applies: relative to 35-E11; normalized to P450 concentration. Here is the method: Cell lysates for high throughput screening were prepared as described previously (Peters et al., J. Am. Chem. Soc. 125:13442 (2003); incorporated by reference herein). High-throughput dimethyl ether (DME) screens were performed in 96 well plates as described previously. Improved mutants were selected based on an increased signal compared to 9-10A (for the saturation mutagenesis libraries) and 1-12G (for the recombination library). Reactions on octane and propane were analyzed by gas chromatography as described.
as §1
The relative dimethyl ether (DME) activity was measured, 1 hour after treatment with Purpald, as the average net and absorbance at 550 nm from 8 microtitre plate DME reactions of the mutant compared to 8 equivalent reactions of 35-E11. All values were normalized by measuring the P450 concentration in each well with CO binding. “Asteriks” indicate criteria used to select mutants from libraries for further characterization. The oxidation rate is measured as absorbance change at 340 nm over 1 minute upon the addition of NADPH to 8 microtitre plate wells containing P450-containing cell lysate and compared to 8 equivalent reactions of 35-E11. All values were normalized by measuring the P450 concentration in each well with CO binding. The total turnover number (TTN) was measured as the absorbance at 550 nm of methane reactions with each mutant after treatment with alcohol oxidase and
Screening libraries by spectroscopically monitoring NADPH consumption rates in the presence of the alkane often selects for mutants with NADPH oxidation rates highly uncoupled to product formation. This can be overcome through the use of surrogate substrates that mimic desired substrates, yet yield species when hydroxylated that are easily detected either directly or with the addition of a dye. For example, the screen for the high-throughput identification of mutant BM-3 enzymes with activity towards propane as described previously uses dimethyl ether (DME) as a propane surrogate substrate. Upon hydroxylation, it decomposes into methanol and dye-sensitive formaldehyde. In addition, hexyl methyl ether (HME) may be used as a surrogate for octane. It shares most of the physical properties of octane, including solubility in buffer, size, shape, and strength of its C—H bonds. When HME is hydroxylated at its methoxy carbon, it also produces an equivalent of formaldehyde which is visually detected at concentrations as low as 10 μM with the dye Purpald (see FIG. 25). Hexanal, the aldehyde product formed when the α-carbon of the hexyl group is hydroxylated, is practically unreactive towards Purpald at some concentrations used in the present screens. Formaldehyde is approximately 42 times more sensitive to Purpald than hexanal (see FIG. 26). This disproportionate response makes HME, in contrast to the symmetric ether DME, a regio-selective screen for terminal alkane hydroxylation.
High-throughput screening. Single colonies were picked and inoculated by a Qpix robot (Genetix, Beaverton, OR) into 1-mL, deep-well plates containing LB (Amp*) medium (400 μL). The plates were incubated at 30° C., 250 rpm, and 80% relative humidity. After 24 h, 50 μL from this pre-culture were used to inoculate a 2-mL, deep-well plates containing […] TB (Amp^+) medium per well. Cultures were grown at 37° C., 220 rpm, and 80% relative humidity. […]

Assay [3] can be described thus: Methane to methanol conversion (alcohol oxidase/Purpald). The note with it: methane to methanol. On the procedure:
The 35-E11 variant was tested for the ability to convert methane to methanol using the method of Anthon and Barrett (Agric. Food Chem., 52:3749 (2004)). The method was optimized so that it could detect methanol concentrations in water as low as 10 μM.
The mutant BM-3 enzymes described below were purified using published procedures and used as catalysts in small reactions with methane. In glass head space vials containing magnetic stirring bars, BM-3 catalyst was added to 0.1 M potassium phosphate buffer (pH=8) saturated with methane. The vials were then crimped shut and charged to 20 psi with methane. To start the biotransformation, an NADPH regeneration system consisting of NADP+, isocitrate, and isocitric dehydrogenase was added through a syringe. The reaction was allowed to stir 12-15 hours. Methanol production was measured using a coupled enzyme assay. Aliquots of the reaction were transferred to 96-well microtitre plates and reacted with the enzyme alcohol oxidase for 5 minutes at room temperature. Alcohol oxidase converts the methanol produced by the BM-3 variants into formaldehyde which can be detected with the dye Purpald. To detect formaldehyde and quench the alcohol oxidase reaction, a solution of Purpald in 2 M NaOH was added and allowed to react for one hour. The purple color that Purpald forms in the presence of formaldehyde was quantified one hour later by spectrophotometrically reading the well at 550 nm and comparing the absorbance against similarly-treated solutions of BM-3, NADPH regeneration system, and methane-free buffer spiked with known concentrations of methanol. The results of these biotransformations are reported in Table 3 and sample spectra from the colorimetric assay are shown in FIG. 7.
Reactions for enzyme-catalyzed conversion of methane to methanol were carried out in 10 mL glass headspace vials. A 470 μL reaction mixture containing 5 μM purified BM-3 variant in 0.1 M potassium phosphate buffer (pH 8.0) was first added to the vial. The vial was immediately topped with a septum, pressurized with 30 psi of methane and shaken at 4° C. for 1 hour. […] For determination of total turnover, the reaction was allowed to proceed for 20 hours at room temperature.
The amount of methanol product formed during the 20 hr methane reaction was quantified colorimetrically with the use of alcohol oxidase and Purpald. 190 μL of the reaction mixture is transferred onto a single cell of a 96 well plate. 10 μL of 0.05 U/μL solution of alcohol oxidase (from Pichia pastoris, purchased from Sigma-Aldrich) was added to cell and allowed to incubate at room temperature for 5 minutes. During this time, the alcohol oxidase converts the methanol into formaldehyde. Purpald (168 mM in 2 M NAOH) was then added to form a purple product with the formaldehyde in solution. The purple color was read approximately 1 hour later at 550 nm using a Spectramax Plus microtiter plate reader. The concentration of methanol was determined based on the measure absorbance in comparison to a methanol calibration curve. The methanol calibration curve was generated with several standards. Each standard contained 100 μL of a methanol solution (10, 20, 40, 60, 100 μM) and 90 μL of the methane reaction mixture described above, without the methane pressurization.
The relative dimethyl ether (DME) activity was measured, 1 hour after treatment with Purpald, as the average net and absorbance at 550 nm from 8 microtitre plate DME reactions of the mutant compared to 8 equivalent reactions of 35-E11. All values were normalized by measuring the P450 concentration in each well with CO binding. “Asteriks” indicate criteria used to select mutants from libraries for further characterization. The oxidation rate is measured as absorbance change at 340 nm over 1 minute upon the addition of NADPH to 8 microtitre plate wells containing P450-containing cell lysate and compared to 8 equivalent reactions of 35-E11. […]

Marks after values point to notes of the source that are not given here.

B1: 21-4G: P450 BM-3 variant, SEQ ID NO:13; 35-E11 plus D631N (protein)
chain: TIKEMPQPKTFGELKNLPLLNTDKPVQALMKIADELGEIFKFEAPGCVTRYLSSQRLIKEACDESRFDKNLSQALKFFRDFSGDGLFTSWTHEINWKKAHNILLPSFSQQAMKGYHAMMVDIAVQLVQKWERLNADEHIEVSEDMTRLTLDTIGLCGFNYRFNSFYRDQPHPFIISMVRALDEVMNKLQRANPDDPAYDENKRQCQEDIKVMNDLVDKIIADRKARGEQSDDLLTQMLNGKDPETGEPLDDGNISYQIITFLIAGHETTSGLLSFALYFLVKNPHVLQKVVEEAARVLVDPVPSYKQVKQLKYVGMVLNEALRLWPTFPAFSLYAKEDTVLGGEYPLEKGDEVMVLIPQLHRDKTIWGDDVEEFRPERFENPSAIPQHAFKPFGNGQRACIGQQFALHEATLVLGMMLKHFDFEDHTNYELDIKETLTLKPEGFVVKAKSKKIPLGGIPSPSTGQSAKKVRKKAENAHNTPLLVLYGSNMGTAEGTARDLADIAMSKGFAPQVATLDSHAGNLPREGAVLIVTASYNGHPPDNAKQFVDWLDQASADEVKGVRYSVFGCGDKNWATTYQKVPAFIDETLAAKGAENIADRGEADASDDFEGTYEEWREHMWSDVAAYFNLNIENSEDNKSTLSLQFVDSAADMPLAKMHGAFSTNVVASKELQQPGSARSTRHLEIELPKEASYQEGDHLGVIPRNYEGTVNRVTARFGLDASQQIRLEAEEEKLAHLPLAKTVSVEELLQYVELQDPVTRTQLRAMAAKTVCPPHKVELEALLEKQAYKEQVLAKRLTMLELLEKYPACEMKFSEFIALLPSIRPRYYSISSSPRVDEKQASITVSVVSGEAWSGYGEYKGIASNYLAELQEGDTITCFISTPQSEFTLPKDPETPLIMVGPGTGVAPFRGFVQARKQLKEQGQSLGEAHLYFGCRSPHEDYLYQEELENAQSEGIITLHTAFSRMPNQPKTYVQHVMEQDGKKLIELLDQGAHFYICGDGSQMAPAVEATLMKSYADVHQVSEADARLWLQQLEEKGRYAKDVWAG
modifications: Mutant P450 21-4G protein sequence
notes: 35-E11 plus D631N
For the molecule B1, the “Relative background NADPH oxidation rate” value in assay [1] is on record as 0.7*. Besides, the “Relative DME activity in screen” value in assay [2] is given as 1.1. In addition, in assay [3], the “Methane TTN” value worked out at 10.
